The test deals with T1, Recombinant HpHbR N-terminal domain (Trypanosoma brucei brucei (strain not …, biotin (biotinylated form on streptavidin-coated plates; a non-biotinylated form was coated on Maxisorp plates)).
T1 construct: also called HpHbR NTD; TbHpHbR NTD; source: recombinant, expressed as previously described (34)
Briefly: ELISA; phage ELISA: 10 ug/ml HpHbR NTD coated on Nunc Maxisorp plates or 5 ug/mL biotinylated NTD on streptavidin-coated plates overnight at 4°C; blocked phage supernatants 1 hr at room temperature; bound phage detected with anti-M13 HRP antibody; BSA and streptavidin in parallel. The conditions noted are these: one partner purified. A general note: In an ELISA, binding on a coated surface is turned into a signal by an enzyme label.

Substitutions are numbered along the chain they refer to.

B1: Tb017 scFv (scFv, V domains shown)
VH: QVQLVQSGAEVKKPGSSVKVSCKASGGTFSSYAISWVRQAPGQGLEWMGGIIPIFGTANYAQKFQGRVTITADESTSTAYMELSSLRSEDTAVYYCARGWWYDLVFDYWGQGTLVTVSS
VL: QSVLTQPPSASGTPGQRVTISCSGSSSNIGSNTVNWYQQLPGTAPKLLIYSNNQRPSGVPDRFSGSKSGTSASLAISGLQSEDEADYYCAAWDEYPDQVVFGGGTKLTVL
notes: The name Tb017 is printed for the IgG1 and its conjugate; source: phage produced from E. coli, phage-containing supernatant
As to B1, the binding result is recorded as “binds”.

B2: Tb078 scFv (scFv, V domains shown)
VH: B1 VH with W101I, D103E, L104F, V105I, F106I, Y108A
VL: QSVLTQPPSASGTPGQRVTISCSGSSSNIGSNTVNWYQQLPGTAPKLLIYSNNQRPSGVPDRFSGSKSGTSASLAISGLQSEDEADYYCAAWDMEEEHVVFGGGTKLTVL
notes: The name Tb078 is printed for the IgG1 and its conjugate; source: phage produced from E. coli, phage-containing supernatant
Turning to B2, the binding result is “binds”.

B3: Tb073 scFv (scFv, V domains shown)
VH: B1 VH with W101Y, Y102D, D103M, L104G, V105D, Y108M
VL: QSVLTQPPSASGTPGQRVTISCSGSSSNIGSNTVNWYQQLPGTAPKLLIYSNNQRPSGVPDRFSGSKSGTSASLAISGLQSEDEADYYCAAWDWHHGHVVVFGGGTKLTVL
notes: The name Tb073 is printed for the IgG1 and its conjugate; source: phage produced from E. coli, phage-containing supernatant
With B3, the binding result is “binds”.

B4: Tb085 scFv (scFv, V domains shown)
VH: B1 VH with G99E, W100G, Y102D, D103Y, L104G, V105W, Y108F
VL: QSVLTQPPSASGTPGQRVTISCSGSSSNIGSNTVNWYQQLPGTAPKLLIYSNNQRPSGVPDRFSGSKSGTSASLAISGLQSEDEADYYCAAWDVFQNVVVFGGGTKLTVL
notes: The name Tb085 is printed for the IgG1 and its conjugates; source: phage produced from E. coli, phage-containing supernatant
As to B4, the binding result is reported as “binds”.

B5: Tb074 scFv (scFv, V domains shown)
VH: B1 VH with Y102H, D103E, L104P, V105G
VL: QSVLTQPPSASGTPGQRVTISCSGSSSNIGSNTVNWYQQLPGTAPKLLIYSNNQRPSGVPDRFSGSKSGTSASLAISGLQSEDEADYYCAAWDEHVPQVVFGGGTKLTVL
notes: The name Tb074 is printed for the IgG1 and its conjugates; source: phage produced from E. coli, phage-containing supernatant
Take B5: the binding result is “binds”.

B6: Tb086 scFv (scFv, V domains shown)
VH: B1 VH with W101Y, D103H, L104G, V105G, F106I
VL: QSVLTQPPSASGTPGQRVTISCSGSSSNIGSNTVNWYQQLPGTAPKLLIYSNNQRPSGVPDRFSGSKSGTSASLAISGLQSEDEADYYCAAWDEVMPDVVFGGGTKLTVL
notes: The name Tb086 is printed for the IgG1; source: phage produced from E. coli, phage-containing supernatant
For B6, the binding result is recorded as “binds”.

The record behind these values is article doi:10.1101/547208, “A single dose of antibody-1 drug conjugate cures a stage model of African trypanosomiasis” (bioRxiv, 2019).
